Consider 17 sequences from the DeepSol protein solubility set.

This data set is described as follows: soluble on expression in E. coli; label from the status in PepcDB or PDB records.
With “RLSTWARKQTAMSQTQDYECRSHNVDLPESRIPGSNTRLEWVEIIEPRTRERMYANLVTGECVWDPPAGVRIKRTSENQWWELFDPNTSRFYYYNASTQRTVWHRPQGCDIIPLAKLQTLKQNTESPRASAESSPGRGSSVSREGSTSSSLEPEPDTEKAQELPARAGRPAAFGTVKEDSGSSSPPGVFLEKDYEIYRDYSADGQLLHYRTSSLRWNSGAKERMLIKVADREPSFLAAQGNGYAPDGPPGVRSRRPSGSQHSPSLQTFAPEADGTIFFPERRPSPFLKRAELPGSSSPLLAQPRKPSGDSQPSSPRYGYEPPLYEEPPVEYQAPIYDEPPMDVQFEAGGGYQAGSPQRSPGRKPRPFLQPNKQGPPSPCQQLVLTKQKCPERFLSLEYSPAGKEYVRQLVYVEQAGSSPKLRAGPRHKYAPNPGGGSYSLQPSPCLLRDQRLGVKSGDYSTMEGPELRHSQPPTPLPQAQEDAMSWSSQQDTLSSTGYSPGTRKRKSRKPSLCQATSATPTEGPGDLLVEQPLAEEQPPCGTSLAPVKRAEGEAEGARGAAEPFLAQARLAWEAQQAHFHMKQRSSWDSQQDGSGYESDGALPLPMPGPVVRAFSEDEALAQQENRHWRRGTFEKLGFPQILLEKSVSVQTNLASPEPYLHPSQSEDLAACAQFESSRQSRSGVPSSSCVFPTFTLRKPSSETDIENWASKHFNKHTQGLFRRKVSIANMLAWSSESIKKPMIVTSDRHVKKEACELFKLIQMYMGDRRAKADPLHVALEVATKGWSVQGLRDELYIQLCRQTTENFRLESLARGWELMAICLAFFPPTPKFHSYLEGYIYRHMDPVNDTKGVAISTYAKYCYHKLQKAALTGAKKGLKKPNVEEIRHAKNAVFSPSMFGSALQEVMGMQRERYPERQLPWVQTRLSEEVLALNGDQTEGIFRVPGDIDEVNALKLQVDQWKVPTGLEDPHVPASLLKLWYRELEEPLIPHEFYEQCIAHYDSPEAAVAVVHALPRINRMVLCYLIRFLQVFVQPANVAVTKMDVSNLAMVMAPNCLRCQSDDPRVIFENTRKEMSFLRVLIQHLDTSFMEGVL”, the “soluble on expression in E. coli” value is listed as “soluble”.

Take “MEKKANHGDDVQESVPIIHSQVVKIKREFEKIQHPSLKQPEMPLVFREIMGPRRSRSPLGLGERERSIPVGN”: the “soluble on expression in E. coli” value is “not soluble”.

For the sequence “MSLTYILRRSQLLLIVSSYQLVHYLCSQLSSLKDASCMCAYILTTLYKDIDMELAEKDKGRDFTLRNARMDDIDQIIKINRLTLPENYPYYFFVEHLKEYGLAFFVAIVDNSVVGYIMPRIEWGFSNIKQLPSLVRKGHVVSIAVLEEYRRKGIATTLLEASMKSMKNDYNAEEIYLEVRVSNYPAIALYEKLNFKKVKVLKGYYADGEDAYLMARPLEGHHHHHH”, the “soluble on expression in E. coli” value is “not soluble”.

Take “MSLSEKTFPSHARVVIVGGGVMGVGLAYHLAHEGWGHDTVLLEKAELTSGSTWHAAGQITHSTSSYGLGKCVDYNIGLYSGGLEAETGQAVTWHGCGSFRLAYTEDEMDWLRHTLSVGRSLGFNIDLVSPQRVAELHPFYNLDGVLGALHTPDDGHVDPTNVTMALAAGARAKGVRIIRRCRASNITQLASGEWQVETDQGTITCEHVVNAGGTYARQMGEWSGLQLPMTSMTHHYFVTENVPEFEALDRELPVIRDDKKVSGYIRMEQKRGLIGIYEKANPNAVWLDECPWDYENWLFDADYDRVMPWLEESLNRMPVLAERGITREVHGAISHPPDGNPLIGPAPGVRNYWCCCGTQIGIGWGPGLTRELARWMVHGAADISMRDYDPRRFGSYATKEWQVIKAKEDYCLRHEIPFPHFNRLAGRPVKPSPLYDRLKSKGAVFEEVYGHERPRWFAKAGIAQHDHYGFGRTPVHDVVGDECRAVREAAGIMDISAFTKVELSGPEAETLLDRLVANRLPRKTGGIALTHMLNAAGRIELETTVVRLASDRFYLVCAAFFEQRLLDHLDRHRGTADVTVTLRSNDWAALTLNGPRSRDILATCTDAPLDNAAFPWLTAQEITVAGHRLWAFRMSYAGELGWEFHMPRDAALAVYDALWAAGAPLGLADYGSFAMNAMRMEKGFKGAGELTNEVTLAEADVLRFARTDKAYIGREATLAPARRFVCAYLEIAPDGAHDGHGGEAVLLQGKVVGSTASVAYGHSCGKILAFAYVRPEANVAGTEVEVVIAGTPRPARILGAPAYDPEGLLPRTDAKGIITITTDPNSSSVDKLAAALEHHHHHH”: the “soluble on expression in E. coli” value is on record as “soluble”.

For the sequence “MRLFILLSCLLAWVLAAPYIDQEDALRVLNAYLEQFGPGSDRVYYVAEDDHGSMKRGLGPRPLRFG”, the “soluble on expression in E. coli” value is given as “not soluble”.

In the case of “MKYKHLILSLSLIMLGPLAHAEEIGSVDTVFKMIGPDHKIVVEAFDDPDVKNVTCYVSRAKTGGIKGGLGLAEDTSDAAISCQQVGPIELSDRIKNGKAQGEVVFKKRTSLVFKSLQVVRFYDAKRNALAYLAYSDKVVEGSPKNAISAVPVMPWRQ”, the “soluble on expression in E. coli” value was “soluble”.

For the sequence “MYLACLAKFSQNVELRKMLFRTQDMYLVEASGNDAIWGNGIWKEDKRSDDVANWHGTNYLGEILDRIRGELIGKPEFAAEKEAVQLESLEQRIQMLMA”, the “soluble on expression in E. coli” value is recorded as “not soluble”.

Take “MSLSLYQSVRAVANARGGETEWIDWRATAEAAKQARDQGALTLDDAERRAYATDVRDARSRLRTVGGLEFDIPQTIEVQNRHHWIDANIKTFERMLDPIDIATLIDDTNALNGPSGYATRMVNTGSMAAALAFLSGNVLGQYDPQLLSQTTDTIETNENNHELYFVHPNIVDVAAELDVEYPRFRRWIAFHEVAHAAEFGAAPWLRTHIEDRIESGLEALTGGRLDRSAFSDVDIVMTAVEGYAELLMDRAFDKEYADLRAKLDARRGGGGPVAQLFRRLLGLGVKERQYERGAQFFETIADQRGVKAAATVWEDPRYLPDESELDNPQYWIDRVNEGHHHHHH”: the “soluble on expression in E. coli” value is “not soluble”.

In the case of “MTFRNCVAVDLGASSGRVMLARYERECRSLTLREIHRFNNGLHSQNGYVTWDVDSLESAIRLGLNKVCAAGIAIDSIGIDTWGVDFVLLDQQGQRVGLPVAYRDSRTNGLMAQAQQQLGKRDIYQRSGIQFLPFNTLYQLRALTEQQPELIPHIAHALLMPDYFSYRLTGKMNWEYTNATTTQLVNINSDDWDESLLAWSGANKAWFGRPTHPGNVIGHWICPQGNEIPVVAVASHDTASAVIASPLNGSRAAYLSSGTWSLMGFESQTPFTNDTALAANITNEGGAEGRYRVLKNIMGLWLLQRVLQERQINDLPALIAATQALPACRFIINPNDDRFINPDEMCSEIQAACREMAQPIPESDAELARCIFDSLALLYADVLHELAQLRGEDFSQLHIVGGGCQNTLLNQLCADACGIRVIAGPVEASTLGNIGIQLMTLDELNNVDDFRQVVSTTANLTTFTPNPDSEIAHYVALIHSTRQTKELCA”, the “soluble on expression in E. coli” value is “soluble”.

As to “MEQTLKITSVLSDPTRFHIYEYIAKVHREVSVQEIAEKFHIHPNVARLHLTKLEDVRMVVSDTQKTGKGGRPSRLYRLSDEVIGLYFPFRDYQLLARIAIQTMAKLGPIGSEALRETGKRFGRELIASRLPHNGAASALTMADKIAIMEEAAEAAGFLPQLHYDEEKGVLYLDIFNCPFKEIAAQAPDTVCGMHHSFLEGMVETLFAGAEVTETENMMEGSHRCAYRIVIRP”, the “soluble on expression in E. coli” value is on record as “not soluble”.

Regarding “SNALQPNMRTRVCTVINNNIAHEWTLARIASELLMSPSLLKKKLREEETSYSQLLTECRMQRALQLIVIHGFSIKRVAVSCGYHSVSYFIYVFRNYYGMTPTEYQERSAQRLSNRDSAAS”, the “soluble on expression in E. coli” value was “soluble”.

For “MDAARFPADARVRVLARRFPPYHRDSPCLAILDRFLHDPTLSAAAVVDDAMRPVGLIDRYSLVEQFLHPYSRDLYHKHSIAAFMDPEPVIVEADSSIDDLSRIIIDAGMRHMVSGFIVTEDGLYLGIGSGHDLFEEVANRKQNHLYHLAHYDPLTSLPNRLLLNDRLKRACLRGQRGGYRIALLFIDLDRFKLVNDTLGHAAGDQLLQGVAGRFAACVRKVDTVARLGGDEFTVLLEPVQGPDEALAVAAKLAQSLERPFLIQNHEITTSASIGVVLFPEHDATVEGLMRKADAAMYCAKREGRNRFALFTEEMNSTVVERVTLESYLNAALEKGEFCCHFQPQMATADDRIVGVEALLRWTNPVLGRVPPLKFIPVAEDTGLILPLGLWALETACAQQVRWLSQGLPPLRMAVNISPLQFRNREFCDQVRAIVQRTGIRAEHLELELTESAVMADAESSVGILRELRDSGIRLAIDDFGTGYSSLSYLRKFPLDRLKIDRSFVSGIDRIPANELIVKAIVALGGSLGLDVIAEGVETPEELECIERCGCSEYQGFRLSEPLTAEDFAHWFEDSGYVLEHHHHHH”, the “soluble on expression in E. coli” value is listed as “not soluble”.

Consider “MSLHPETSTELADIRKKAGRRRSIVFVAGNFNIVHPGHLRLLKFAADCGDYLVVGVTADPGYDWMLPAELRLEGVRAIGVVDHAFLLHDAPEDFIAALQPSVVVKGKEHEGADNPEKAVLDGYGGRLVFSSGEVAFSSLDLIKREFREFNPSSIVKPLDYPRRHRFELLELKNVLAGFPKLRVLVLGDLIVDEYIACDPLGLSQEDPTIVVTPVLRELFVGGAGIVAGHAAGMGAQVALLTVGGGDAMADFARERLASYNVDATILTDESRPTTTKQRFRAGNKTLLRVSHLKQHDVDADLQTRMLETIEHRLPSTDLVVFSDFNYGCLPTRLVEAIGQACRARGVPMVADSQSSSQVGDISRFAEMLLIKPTEREARLAMRDFDSGLVVLVEALREKARAKNVILTLAAEGLLVHAETGSAGTVVTDRLPAFNTAPKDAAGAGDSFFVCAALALAIGTDIWRSAYLASIAAACQVGRIGNIPVTARDIIRELDTEGHHHHHH”, for which the “soluble on expression in E. coli” value was “soluble”.

Regarding “MAYEDLREFIGRLEDKGELARVKHEVSPILEMSEVADRTVKAGGKALLFERPKGYDIPVFMNAFGTERRMKLALEVERLEEIGERLLSALEFRPSSFMDALKGVGMLKDFMSFIPKKTGKAPCKEVVAESLDKFPILKCWPKDAGRFITFPVVITKDPETGEMNAGMYRMQVFDGKTTGMHWQIHKHGAEHFRKMAEKGGGKIEVAVAIGVDPATLYAATAPLPSGISEFMFAGFIRKERLKVTECETVDLLVPANAEIILEGYVRVDEMRVEGPFGDHTGYYTPPEPYPVFHITHITHRENPIYHATVVGKPPMEDAWLGKATERIFLPILRMMHPEIVDINLPVEGAFHNLAIVSIKKRYPGQAKKVMYAIWGTGMLSLTKIVVVVDDDVNVHDMREVVWAVTSRFDPARDVVILPPSPTDSLDHSAYIPNLAGKLGIDATKKWRDEGYEREWPDVVEMDAETKRKVDAIWNEIRNMVLAAALEHHHHHH”, the “soluble on expression in E. coli” value was “not soluble”.

With “RFNVFDFRGATLIADYGHNPDAIQALVRAIDTMPARRRSVVISGAGDRRDEDLRQQTEILGGAFDDVILYQDQCQRGRADGEVVALLRQGLQQAPRTRHIDEIQGEFVAIDAALERLAPGDLCLILVDQ”, the “soluble on expression in E. coli” value is “not soluble”.

Take “MKLFERIHQDTEIRQIYDAIGQMEDEEAGWAYHNWFHVTNVVAMTEMILKQLAVSEEYLEAAKIAALLHDVGALQGKAGHALRGKQFAEAYFRKQKICLPYQEEILSSIENHSNGFDSEELMTLALIISDKLDITTSRVAKAGYFVPGMRQFQFLKKIEIMLSEQEVCVSFTAEEELDLEELNAFYFMPKVFKAIAAFSGKIQRRPIVLLNNQEWPVPKQKNPSTVHLEHHHHHH”: the “soluble on expression in E. coli” value was “soluble”.

Take “SLQKQEKIIEMFNQIAPTYDKANRILSFGADVAWRKKACQRVMSLYLKKDLKIADIACGTGDMIEIWQESALKMEKNILNIKGIDPSSGMLNVAKEKFPNVEFIKAGAQNLPLESQSLDILSISYGIRNVVERQKALSEFARVLQKDGILVVLEFTKREKGGFIAACRDFYLKNILPSIGGIISKNKSAYEYLPNSIEGFLSKKEFILELKNAGFEMLDYKSFSFGVSSMFIAKKL”: the “soluble on expression in E. coli” value is on record as “soluble”.
